Assay results published in patent publication US10646600B2, “HER2 polypeptides useful for imaging and monitoring tumors and cancers” (GE HEALTHCARE LIMITED, priority 2013, dated 2020).
“Also recorded” adds a separate entry of the source.

Tests used:
Type in all cases: in vivo, mice
[1] = tested on: MCF7-HER2 xenografts; assay: PET-CT imaging and kinetic modeling, MCF7-HER2 xenografts
From the text: (§1) Mice were anesthetized through isoflurane inhalation and scanned on a dedicated small animal PET-CT scanner (Siemens Multimodality Inveon, Erlangen, Germany). Low dose CT scans were first acquired (80 kVp, 0.5 mA, 220 degree rotation, 600 ms per degree exposure time, 80 μm reconstruction pixel size) for PET attenuation correction and to obtain an anatomical reference. PET images were acquired following a bolus i.v. injection of approximately 3.7 MBq [^18F]GE-226 in the tail vein. Dynamic emission scans were acquired in list mode format over 60 minutes. The acquired data were sorted into 0.5-mm sinogram bins and 19 time frames for image reconstruction by filtered back projection (4×15 seconds and 4×60 seconds followed by 11×300 seconds). The Siemens Inveon Research Workplace software was used for visualization of radiotracer uptake. 30 to 60-minute cumulative images of the dynamic data were employed to define 3-dimensional (3D) regions of interest (ROI). […] The count densities were averaged for all ROIs at each time point to obtain time versus radioactivity curves (TAC). Tumor TACs were normalized to injected dose measured by a VDC-304 dose calibrator (Veenstra Instruments, Joure, Netherlands) and normalized uptake was expressed as percentage injected dose per mL tissue (NUV; % ID/mL). […]

[2] = tested on: MCF7 and MCF7-p95HER2 xenografts; assay: PET-CT imaging and kinetic modeling, HER2 negative xenografts; settings: HER2 negative tumors
From the text: as §1

[3] = Biodistribution, tissues
From the text: (§2) Mice were sacrificed at different time points by exsanguination.

[4] = tested on: SKOV-3; assay: Biodistribution, SKOV-3 tumor
From the text: as §2

[5] = tested on: MCF7-p95HER2; assay: Biodistribution, MCF7-p95HER2 tumor; settings: 60 min
From the text: as §2

[6] = two-tissue irreversible compartmental model

[^18F]GE-226: HER2-binding 18F-radiolabelled Affibody molecule ZHER2:2891
NUV60 ([1]; PET, 60 minutes): 10.9±1.5 % ID/mL | Ki (net irreversible uptake rate) [1, 6]: 0.015±0.0035 mL/cm^3/min | NUV60 ([2]; PET, 60 minutes): 6.1±0.7 % ID/mL | Ki (net irreversible uptake rate) [2, 6]: 0.0069±0.0014 mL/cm^3/min | Tissue uptake, Blood ([3]; 5 min): 0.82 ± 0.83 % ID/g tissue | Tissue uptake, Bone ([3]; 5 min): 1.20 ± 1.08 % ID/g tissue | Tissue uptake, Brain ([3]; 5 min): 0.33 ± 0.35 % ID/g tissue | Tissue uptake, Caecum empty ([3]; 5 min): 3.24 ± 3.76 % ID/g tissue | Tissue uptake, Caecum full ([3]; 5 min): 0.97 ± 1.09 % ID/g tissue | Tissue uptake, Colon empty ([3]; 5 min): 2.68 ± 2.44 % ID/g tissue | Tissue uptake, Colon full ([3]; 5 min): 2.40 ± 2.53 % ID/g tissue | Tissue uptake, Duodenum empty ([3]; 5 min): 3.21 ± 3.50 % ID/g tissue | Tissue uptake, Duodenum full ([3]; 5 min): 2.55 ± 2.17 % ID/g tissue | Tissue uptake, Gallbladder ([3]; 5 min): 3.22 ± 3.29 % ID/g tissue | Tissue uptake, Heart ([3]; 5 min): 3.10 ± 2.83 % ID/g tissue | Tissue uptake, Jejunum empty ([3]; 5 min): 2.48 ± 2.81 % ID/g tissue | Tissue uptake, Jejunum full ([3]; 5 min): 1.68 ± 1.38 % ID/g tissue | Tissue uptake, Kidney ([3]; 5 min): 15.02 ± 6.99 % ID/g tissue | Tissue uptake, Liver ([3]; 5 min): 2.90 ± 2.96 % ID/g tissue | Tissue uptake, Lung ([3]; 5 min): 3.90 ± 3.84 % ID/g tissue | Tissue uptake, Muscle ([3]; 5 min): 0.88 ± 0.81 % ID/g tissue | Tissue uptake, Plasma ([3]; 5 min): 12.71 ± 14.90 % ID/g tissue | Tissue uptake, Spleen ([3]; 5 min): 3.18 ± 2.66 % ID/g tissue | Tissue uptake, Stomach empty ([3]; 5 min): 2.02 ± 1.62 % ID/g tissue | Tissue uptake, Stomach full ([3]; 5 min): 1.47 ± 1.85 % ID/g tissue | Tissue uptake, Urine ([3]; 5 min): 148.33 ± 127.65 % ID/g tissue | Tissue uptake, Blood ([3]; 15 min): 2.00 ± 0.75 % ID/g tissue | Tissue uptake, Bone ([3]; 15 min): 3.05 ± 0.88 % ID/g tissue | Tissue uptake, Brain ([3]; 15 min): 0.34 ± 0.11 % ID/g tissue | Tissue uptake, Caecum empty ([3]; 15 min): 4.94 ± 2.84 % ID/g tissue | Tissue uptake, Caecum full ([3]; 15 min): 1.68 ± 0.85 % ID/g tissue | Tissue uptake, Colon empty ([3]; 15 min): 5.78 ± 2.99 % ID/g tissue | Tissue uptake, Colon full ([3]; 15 min): 3.43 ± 1.89 % ID/g tissue | Tissue uptake, Duodenum empty ([3]; 15 min): 5.16 ± 2.36 % ID/g tissue | Tissue uptake, Duodenum full ([3]; 15 min): 4.07 ± 1.48 % ID/g tissue | Tissue uptake, Gallbladder ([3]; 15 min): 5.10 ± 1.77 % ID/g tissue | Tissue uptake, Heart ([3]; 15 min): 3.52 ± 1.19 % ID/g tissue | Tissue uptake, Jejunum empty ([3]; 15 min): 4.92 ± 1.33 % ID/g tissue | Tissue uptake, Jejunum full ([3]; 15 min): 2.71 ± 1.01 % ID/g tissue | Tissue uptake, Kidney ([3]; 15 min): 65.82 ± 18.48 % ID/g tissue | Tissue uptake, Liver ([3]; 15 min): 4.58 ± 1.77 % ID/g tissue | Tissue uptake, Lung ([3]; 15 min): 5.99 ± 2.10 % ID/g tissue | Tissue uptake, Muscle ([3]; 15 min): 2.05 ± 0.86 % ID/g tissue | Tissue uptake, Plasma ([3]; 15 min): 9.41 ± 3.75 % ID/g tissue | Tissue uptake, Spleen ([3]; 15 min): 3.94 ± 3.24 % ID/g tissue | Tissue uptake, Stomach empty ([3]; 15 min): 3.75 ± 1.38 % ID/g tissue | Tissue uptake, Stomach full ([3]; 15 min): 2.68 ± 1.04 % ID/g tissue | Tissue uptake, Urine ([3]; 15 min): 283.73 ± 243.00 % ID/g tissue | Tissue uptake, Blood ([3]; 30 min): 0.53 ± 0.35 % ID/g tissue | Tissue uptake, Bone ([3]; 30 min): 1.59 ± 0.94 % ID/g tissue | Tissue uptake, Brain ([3]; 30 min): 0.13 ± 0.08 % ID/g tissue | Tissue uptake, Caecum empty ([3]; 30 min): 1.92 ± 0.89 % ID/g tissue | Tissue uptake, Caecum full ([3]; 30 min): 0.60 ± 0.27 % ID/g tissue | Tissue uptake, Colon empty ([3]; 30 min): 1.80 ± 0.94 % ID/g tissue | Tissue uptake, Colon full ([3]; 30 min): 1.00 ± 0.59 % ID/g tissue | Tissue uptake, Duodenum empty ([3]; 30 min): 2.91 ± 1.27 % ID/g tissue | Tissue uptake, Duodenum full ([3]; 30 min): 2.87 ± 1.18 % ID/g tissue | Tissue uptake, Gallbladder ([3]; 30 min): 2.74 ± 1.06 % ID/g tissue | Tissue uptake, Heart ([3]; 30 min): 1.27 ± 0.60 % ID/g tissue | Tissue uptake, Jejunum empty ([3]; 30 min): 1.87 ± 1.12 % ID/g tissue | Tissue uptake, Jejunum full ([3]; 30 min): 1.73 ± 1.25 % ID/g tissue | Tissue uptake, Kidney ([3]; 30 min): 23.54 ± 11.70 % ID/g tissue | Tissue uptake, Liver ([3]; 30 min): 2.27 ± 1.23 % ID/g tissue | Tissue uptake, Lung ([3]; 30 min): 3.15 ± 1.84 % ID/g tissue | Tissue uptake, Muscle ([3]; 30 min): 0.78 ± 0.48 % ID/g tissue | Tissue uptake, Plasma ([3]; 30 min): 4.10 ± 2.23 % ID/g tissue | Tissue uptake, Spleen ([3]; 30 min): 1.71 ± 0.90 % ID/g tissue | Tissue uptake, Stomach empty ([3]; 30 min): 1.56 ± 0.86 % ID/g tissue | Tissue uptake, Stomach full ([3]; 30 min): 1.28 ± 0.92 % ID/g tissue | Tissue uptake, Urine ([3]; 30 min): 438.65 ± 219.01 % ID/g tissue | Tissue uptake, Blood ([3]; 60 min): 0.32 ± 0.26 % ID/g tissue | Tissue uptake, Bone ([3]; 60 min): 0.68 ± 0.40 % ID/g tissue | Tissue uptake, Brain ([3]; 60 min): 0.10 ± 0.07 % ID/g tissue | Tissue uptake, Caecum empty ([3]; 60 min): 0.87 ± 0.53 % ID/g tissue | Tissue uptake, Caecum full ([3]; 60 min): 0.36 ± 0.22 % ID/g tissue | Tissue uptake, Colon empty ([3]; 60 min): 1.25 ± 0.94 % ID/g tissue | Tissue uptake, Colon full ([3]; 60 min): 0.84 ± 0.59 % ID/g tissue | Tissue uptake, Duodenum empty ([3]; 60 min): 2.29 ± 2.29 % ID/g tissue | Tissue uptake, Duodenum full ([3]; 60 min): 1.53 ± 0.59 % ID/g tissue | Tissue uptake, Gallbladder ([3]; 60 min): 3.92 ± 3.29 % ID/g tissue | Tissue uptake, Heart ([3]; 60 min): 0.64 ± 0.40 % ID/g tissue | Tissue uptake, Jejunum empty ([3]; 60 min): 0.86 ± 0.46 % ID/g tissue | Tissue uptake, Jejunum full ([3]; 60 min): 0.99 ± 0.39 % ID/g tissue | Tissue uptake, Kidney ([3]; 60 min): 11.94 ± 10.30 % ID/g tissue | Tissue uptake, Liver ([3]; 60 min): 1.64 ± 1.49 % ID/g tissue | Tissue uptake, Lung ([3]; 60 min): 1.81 ± 1.32 % ID/g tissue | Tissue uptake, Muscle ([3]; 60 min): 0.50 ± 0.45 % ID/g tissue | Tissue uptake, Plasma ([3]; 60 min): 1.76 ± 1.06 % ID/g tissue | Tissue uptake, Spleen ([3]; 60 min): 0.88 ± 0.56 % ID/g tissue | Tissue uptake, Stomach empty ([3]; 60 min): 0.86 ± 0.72 % ID/g tissue | Tissue uptake, Stomach full ([3]; 60 min): 0.53 ± 0.29 % ID/g tissue | Tissue uptake, Urine ([3]; 60 min): 535.62 ± 303.04 % ID/g tissue | kidney radioactivity levels versus tumors ([3]; 60 min): comparable to levels in tumors | excretion / clearance ([3]; mouse, in vivo): predominately and rapidly excreted via the renal route; also recorded: rapid renal clearance | uptake in other organs, including the liver ([3]; mouse, in vivo): negligible | Tissue uptake, SKOV-3 ([4]; 60 min): 17.35 ± 0.83 % ID/g tissue | tumor/muscle ratio ([4]; SKOV-3 tumor, 1 h): ~60 | Tissue uptake, MCF7-p95HER2 [5]: 6.55 ± 0.13 % ID/g tissue
